Target: T1, TOP3A 917 (truncated) (Homo sapiens, UniProt Q13472 16-917)
T1 sequence: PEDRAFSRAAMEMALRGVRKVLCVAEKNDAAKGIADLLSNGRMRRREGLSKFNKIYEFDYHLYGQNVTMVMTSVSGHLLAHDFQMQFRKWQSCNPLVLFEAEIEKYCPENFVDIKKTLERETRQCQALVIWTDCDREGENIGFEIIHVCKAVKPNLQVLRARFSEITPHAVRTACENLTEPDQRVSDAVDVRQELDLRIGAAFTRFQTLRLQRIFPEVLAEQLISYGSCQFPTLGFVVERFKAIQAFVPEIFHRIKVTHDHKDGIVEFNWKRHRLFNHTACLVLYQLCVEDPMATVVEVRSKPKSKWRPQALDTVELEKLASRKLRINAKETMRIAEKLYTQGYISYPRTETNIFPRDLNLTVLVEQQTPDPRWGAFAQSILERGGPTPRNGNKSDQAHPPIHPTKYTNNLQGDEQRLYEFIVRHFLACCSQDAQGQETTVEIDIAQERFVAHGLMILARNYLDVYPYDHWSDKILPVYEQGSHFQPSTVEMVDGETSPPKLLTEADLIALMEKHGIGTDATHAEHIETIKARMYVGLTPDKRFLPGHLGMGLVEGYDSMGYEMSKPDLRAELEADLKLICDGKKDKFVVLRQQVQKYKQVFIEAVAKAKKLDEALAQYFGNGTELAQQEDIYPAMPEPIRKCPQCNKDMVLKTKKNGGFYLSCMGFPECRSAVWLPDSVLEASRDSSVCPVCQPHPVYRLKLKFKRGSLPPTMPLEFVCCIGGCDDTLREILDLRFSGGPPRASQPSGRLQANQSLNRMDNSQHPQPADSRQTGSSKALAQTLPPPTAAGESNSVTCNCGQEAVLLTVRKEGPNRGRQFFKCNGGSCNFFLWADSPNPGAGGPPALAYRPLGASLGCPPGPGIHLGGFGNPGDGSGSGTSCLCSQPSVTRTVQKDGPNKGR
Assay: EMSA; no Mg2+ added; higher binding than full-length; 25 mM HEPES pH 7.5, 70 mM NaCl, 100 ug/ml BSA, 1 mM DTT, 10% glycerol, 10 fmol DNA in 20 ul, 37 C 15 min; 8% PAGE in 0.5x TBE at 4 C
Settings: protein: recombinant; tags: 6xHis removed with TEV (cloning section: N-terminal TEV-cleavable 6xHis; purification section says C-terminal 6xHis); label: 5' 32P; single strand

TGTTATTATTATGTCCTACAAGCATTAATTAATTAACACA (ssDNA) [EMSA substrate (40 nt ssDNA)]
binding result: binds
